Laboratory results taken from patent WO2014027697A1 (dated 2014).
*: point of attachment. Biotin = O=C1N[C@H]2[C@H](CS[C@H]2CCCCC(=O)*)N1; Ahx = NCCCCCC(=O)O

B1: anti-PspA mouse monoclonal antibody 139G3 (antibody, V domains shown)
VH: EVQLQQSGTEVVKPGASVKLSCTASGFNIKDTYIHWVKKRPEQGLEWIGRIDPANGNTRYDPKFQGKATMTADTSSNTAYLQVSSLTSEDTAVYYCSRSDKFVWFAYWGQGTLVTVSA
VL: DIVLTQSPVSLTVYMGQRATISCRASQSVSTSSYNYIHWFQQKPGQPPKLLIKYASTLESGVPARFSGGGSGTDFTLNIHPVEEEDAATYSCQHSWEIPYTFGGGTKLEIK
notes: Hybridoma antibody, mouse IgG2a, kappa, raised against PspA-TIGR4; also called clone 139G3
B2: anti-PspA mouse monoclonal antibody 140H1 (antibody, V domains shown)
VH: QIQLVQSGPELKKPGETVRISCKASGYTFTTAGMQWVQKVPGKGLQWIGWINTHSGVPTYAEDFKGRIAFSLETSASAAYLQISNLKDEDTATYFCGRSGTGYAMDYWGQGTSVIVSS
VL: DTVMSQSPSSLVVSVGEKVSMSCKSSQNLLYTNNQKNYLAWYQQKPGQSPKLLIYWASTRESGVPDRFTGSGSGTDFTLTITSVKAEDLAVYYCQQYYTYPYTFGGGTKLEIK
notes: Hybridoma antibody, mouse IgG1, kappa, raised against PspA-D39; also called clone 140H1
B3: anti-PspA mouse monoclonal antibody 140G1 (antibody, V domains shown)
VH: QVQLKESGPGLVAPSQSLSITCTVSGFSLIGYGVNWVRQPPGKGLEWLGMIWGDGSTDYNLVLKSRLSINKDNSKSQVFLQMNSLQTDDTARYYCARGPQWGFAYWGQGTLVSVSA
VL: DIVMSQSPSSLAVSAGEKVTMSCKSSQSLLNSRTRKNYLAWYQQKPGQSPKLLIYWASTRESGVPDRFTGSGSGTDFTLTISSVQAEDLAVYYCKQSYNLPTFGGGTKLEIK
notes: Hybridoma antibody, mouse IgG1, kappa, raised against PspA-D39; also called clone 140G1
B4: anti-PspA mouse monoclonal antibody 140G11 (antibody, V domains shown)
VH: QVQLKESGPGLVAPSQSLSITCTVSGFSLTGYGVNWVRQPPGKGLEWLGMIWGDGSTDYNSALKSRLSISKDNSKSQVFLKMNSLQTDDTARYYCARGPQWGFAYWGQGTLVTVSA
VL: DIVMSQSPSSLAVSAGEKVTMSCKSSQSLLNSRTRKNYLAWYQQKPGQSPKLLIYWASTRESGVPDRFTGSGSGTDFTLTISSVQAEDLAVYYCKQSYNLPTFGGGTKLEIK
notes: Hybridoma antibody, mouse IgG2a, kappa, raised against PspA-D39; also called clone 140G11

Key:
MBP-PspA-BAA658-S3 [1] = biological target: T1, MBP-PspA-BAA658-S3 (Streptococcus pneumoniae strain BAA-658); assay: ELISA on plates coated with E. coli lysate holding the MBP-tagged fragment, antibody at 1 μg/mL
T1 construct: Tested as cleared E. coli lysate coated on ELISA plates; also called MBP-BAA658(S3)

MBP-PspA-BAA658-S4 = biological target: T2, MBP-PspA-BAA658-S4 (Streptococcus pneumoniae strain BAA-658); assay: as above
T2 construct: Tested as cleared E. coli lysate coated on ELISA plates; also called MBP-BAA658(S4)

[2] = biological target: T3, synthetic peptide BAA658-PR2 (Streptococcus pneumoniae strain BAA-658, SMILES …); assay: ELISA, biotinylated peptide on NeutrAvidin plates, antibody at 1 μg/mL
T3 peptide: {Biotin-Ahx}-TPAPAPKPEQPAEQPK-NH2

[3] = biological target: T4, synthetic peptide BAA658-PR1.2 (Streptococcus pneumoniae strain BAA-658, SMILES …); assay: as above
T4 peptide: {Biotin-Ahx}-PEKPAEETPAPAPKPEQPA-NH2

MBP-PspA-BAA658-FL = biological target: T5, MBP-PspA-BAA658-FL (Streptococcus pneumoniae strain BAA-658); assay: ELISA on plates coated with E. coli lysate holding the MBP-tagged protein, antibody at 1 μg/mL
T5 construct: Tested as cleared E. coli lysate coated on ELISA plates; also called full BAA-658 peptide; strain BAA-658 FL

[4] = biological target: T6, synthetic peptide BAA658-PR3 (Streptococcus pneumoniae strain BAA-658, SMILES …); assay: ELISA, biotinylated peptide on NeutrAvidin plates, antibody at 1 μg/mL
T6 peptide: {Biotin-Ahx}-EQPAEQPKPAPAPQP-NH2

[5] = biological target: T7, synthetic peptide BAA658-PR4 (Streptococcus pneumoniae strain BAA-658, SMILES …); assay: as above
T7 peptide: {Biotin-Ahx}-KPAPAPQPAPAPKPE-NH2

[6] = biological target: T8, recombinant PspA-TIGR4 with C-terminal His-tag (Streptococcus pneumoniae strain TIGR4); assay: SPR, Biacore 3000, PspA immobilized on CM5 chip, antibody as analyte, bivalent binding model (KD1 = kd1/ka1)
T8 construct: Made in E. coli BL21(DE3), purified on Ni Sepharose; immobilized on a CM5 chip in the SPR assay; also called pelB-PspA(TIGR4)-His
T8 chain: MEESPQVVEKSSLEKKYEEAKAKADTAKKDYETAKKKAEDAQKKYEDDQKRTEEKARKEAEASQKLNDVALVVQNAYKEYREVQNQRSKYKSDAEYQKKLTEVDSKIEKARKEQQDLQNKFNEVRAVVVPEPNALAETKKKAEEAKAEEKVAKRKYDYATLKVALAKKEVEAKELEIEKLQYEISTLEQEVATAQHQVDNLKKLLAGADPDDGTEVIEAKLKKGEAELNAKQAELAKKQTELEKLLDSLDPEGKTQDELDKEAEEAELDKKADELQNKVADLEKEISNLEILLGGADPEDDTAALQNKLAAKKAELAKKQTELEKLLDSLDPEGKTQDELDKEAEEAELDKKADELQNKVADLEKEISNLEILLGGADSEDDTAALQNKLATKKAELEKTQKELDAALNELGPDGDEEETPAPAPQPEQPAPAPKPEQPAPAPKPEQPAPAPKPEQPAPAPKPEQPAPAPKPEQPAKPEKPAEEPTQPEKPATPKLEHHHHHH

[7] = biological target: T9, recombinant PspA-D39 with C-terminal His-tag (Streptococcus pneumoniae strain D39); assay: as above
T9 construct: Made in E. coli BL21(DE3), purified on Ni Sepharose; immobilized on a CM5 chip in the SPR assay; also called pelB-PspA(D39)-His; PspA-6xHis (D39)
T9 chain: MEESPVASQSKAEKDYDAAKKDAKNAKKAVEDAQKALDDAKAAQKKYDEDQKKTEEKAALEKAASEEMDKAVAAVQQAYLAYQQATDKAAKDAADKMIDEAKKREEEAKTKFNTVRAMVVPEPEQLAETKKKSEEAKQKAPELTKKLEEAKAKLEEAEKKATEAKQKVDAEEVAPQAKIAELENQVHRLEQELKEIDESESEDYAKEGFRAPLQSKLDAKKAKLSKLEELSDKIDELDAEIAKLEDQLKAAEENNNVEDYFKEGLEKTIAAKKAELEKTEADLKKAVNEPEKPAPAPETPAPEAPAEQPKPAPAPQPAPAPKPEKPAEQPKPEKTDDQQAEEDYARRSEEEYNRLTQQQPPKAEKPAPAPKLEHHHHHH

recombinant PspA-BAA658 = recombinant PspA-BAA658 (Streptococcus pneumoniae strain BAA-658); assay: as above
MBP-PspA-BAA658-S3 [8] = biological target: T1, MBP-PspA-BAA658-S3; assay: ELISA on plates coated with E. coli lysate holding the MBP-tagged fragment
MBP-PspA-BAA658-S2 = biological target: T10, MBP-PspA-BAA658-S2 (Streptococcus pneumoniae strain BAA-658); assay: as above
T10 construct: Tested as cleared E. coli lysate coated on ELISA plates; also called MBP-BAA658(S2)

MBP-PspA-BAA658-S1 = biological target: T11, MBP-PspA-BAA658-S1 (Streptococcus pneumoniae strain BAA-658); assay: as above
T11 construct: Tested as cleared E. coli lysate coated on ELISA plates; also called MBP-BAA658(S1)

[9] = biological target: T3, synthetic peptide BAA658-PR2; assay: ELISA, biotinylated peptide on NeutrAvidin plates
[10] = biological target: T4, synthetic peptide BAA658-PR1.2; assay: ELISA, biotinylated peptide on NeutrAvidin plates
[11] = biological target: T12, synthetic peptide BAA658-PR1 (Streptococcus pneumoniae strain BAA-658, SMILES …); assay: ELISA, biotinylated peptide on NeutrAvidin plates
T12 peptide: {Biotin-Ahx}-PEKPAEETPAPAPKPEQ-NH2

[12] = biological target: T6, synthetic peptide BAA658-PR3; assay: ELISA, biotinylated peptide on NeutrAvidin plates
[13] = biological target: T7, synthetic peptide BAA658-PR4; assay: ELISA, biotinylated peptide on NeutrAvidin plates

Row | Binder | binding result (MBP-PspA-BAA658-S3 [1]) | binding result (MBP-PspA-BAA658-S4) | binding result [2] | binding result [3] | binding result (MBP-PspA-BAA658-FL) | binding result [4] | binding result [5] | Kd [6] [nM] | Kd [7] [nM] | Kd (recombinant PspA-BAA658) [nM] | binding result (MBP-PspA-BAA658-S3 [8]) | binding result (MBP-PspA-BAA658-S2) | binding result (MBP-PspA-BAA658-S1) | binding result [9] | binding result [10] | binding result [11] | binding result [12] | binding result [13]
1 | B1 | binds | binds | binds | binds | binds | – | – | – | – | – | – | – | – | – | – | – | – | –
2 | B2 | binds | binds | – | – | binds | binds | binds | < 100 | < 100 | < 100 | – | – | – | – | – | – | – | –
3 | B3 | – | binds | – | – | binds | – | – | – | – | – | no binding (tested: 1 μg/mL) | no binding (tested: 1 μg/mL) | no binding (tested: 1 μg/mL) | no binding (tested: 1 μg/mL) | no binding (tested: 1 μg/mL) | no binding (tested: 1 μg/mL) | no binding (tested: 1 μg/mL) | no binding (tested: 1 μg/mL)
4 | B4 | – | – | – | – | – | – | – | – | – | – | no binding (tested: 1 μg/mL) | no binding (tested: 1 μg/mL) | no binding (tested: 1 μg/mL) | no binding (tested: 1 μg/mL) | no binding (tested: 1 μg/mL) | no binding (tested: 1 μg/mL) | no binding (tested: 1 μg/mL) | no binding (tested: 1 μg/mL)
